Measured values as given in patent publication US20190076400A1 (PROTAGONIST THERAPEUTICS, published 2019).
Square brackets hold non-standard residues; d marks the D form. Ends that are not written are not given here. Dmt = Cc1cc(O)cc(C)c1C[C@H](N)C(=O)O; NMeY = CN[C@@H](Cc1ccc(O)cc1)C(=O)O; NMeCha = CN[C@@H](CC1CCCCC1)C(=O)O; NMeF = CN[C@@H](Cc1ccccc1)C(=O)O; NMeI = CC[C@H](C)[C@H](NC)C(=O)O; NMePhg = CN[C@H](C(=O)O)c1ccccc1; β3hF = N[C@H](CC(=O)O)Cc1ccccc1; NMeNle = CCCC[C@H](NC)C(=O)O; NMeA = CN[C@@H](C)C(=O)O; Sar = CNCC(=O)O

B1: H-DMT-a-Ala-bhF-Sar-NH2 (peptide)
peptide: H-[Dmt][dA]A[β3hF][Sar]-NH2
SMILES: Cc1cc(O)cc(C)c1C[C@H](N)C(=O)N[C@H](C)C(=O)N[C@@H](C)C(=O)N[C@H](CC(=O)N(C)CC(N)=O)Cc1ccccc1
B2: H-DMT-(D)Asp-G-bhF-N(Me)-Cha-OH (peptide)
peptide: H-[Dmt][dD]G[β3hF][NMeCha]-OH
SMILES: Cc1cc(O)cc(C)c1C[C@H](N)C(=O)N[C@H](CC(=O)O)C(=O)NCC(=O)N[C@H](CC(=O)N(C)[C@@H](CC1CCCCC1)C(=O)O)Cc1ccccc1
B3: H-DMT-(D)Asp-G-bhF-N(Me)-Phe-OH (peptide)
peptide: H-[Dmt][dD]G[β3hF][NMeF]-OH
SMILES: Cc1cc(O)cc(C)c1C[C@H](N)C(=O)N[C@H](CC(=O)O)C(=O)NCC(=O)N[C@H](CC(=O)N(C)[C@@H](Cc1ccccc1)C(=O)O)Cc1ccccc1
B4: H-DMT-(D)Thr-G-bhF-N(Me)-Ile-OH (peptide)
peptide: H-[Dmt][dT]G[β3hF][NMeI]-OH
SMILES: CC[C@H](C)[C@@H](C(=O)O)N(C)C(=O)C[C@H](Cc1ccccc1)NC(=O)CNC(=O)[C@H](NC(=O)[C@@H](N)Cc1c(C)cc(O)cc1C)[C@H](C)O
B5: H-DMT-(D)Glu-G-bhF-N(Me)-Ile-OH (peptide)
peptide: H-[Dmt][dE]G[β3hF][NMeI]-OH
SMILES: CC[C@H](C)[C@@H](C(=O)O)N(C)C(=O)C[C@H](Cc1ccccc1)NC(=O)CNC(=O)[C@@H](CCC(=O)O)NC(=O)[C@@H](N)Cc1c(C)cc(O)cc1C
B6: H-DMT-(D)Asp-G-bhF-N(Me)-Tyr-OH (peptide)
peptide: H-[Dmt][dD]G[β3hF][NMeY]-OH
SMILES: Cc1cc(O)cc(C)c1C[C@H](N)C(=O)N[C@H](CC(=O)O)C(=O)NCC(=O)N[C@H](CC(=O)N(C)[C@@H](Cc1ccc(O)cc1)C(=O)O)Cc1ccccc1
B7: H-DMT-(D)Thr-G-bhF-N(Me)-Ala-OH (peptide)
peptide: H-[Dmt][dT]G[β3hF][NMeA]-OH
SMILES: Cc1cc(O)cc(C)c1C[C@H](N)C(=O)N[C@@H](C(=O)NCC(=O)N[C@H](CC(=O)N(C)[C@@H](C)C(=O)O)Cc1ccccc1)[C@H](C)O
B8: H-DMT-(D)Asp-G-bhF-Gly-NH2 (peptide)
peptide: H-[Dmt][dD]G[β3hF]G-NH2
SMILES: Cc1cc(O)cc(C)c1C[C@H](N)C(=O)N[C@H](CC(=O)O)C(=O)NCC(=O)N[C@H](CC(=O)NCC(N)=O)Cc1ccccc1
B9: H-DMT-(D)Asp-G-bhF-N(Me)-Phg-OH (peptide)
peptide: H-[Dmt][dD]G[β3hF][NMePhg]-OH
SMILES: Cc1cc(O)cc(C)c1C[C@H](N)C(=O)N[C@H](CC(=O)O)C(=O)NCC(=O)N[C@H](CC(=O)N(C)[C@H](C(=O)O)c1ccccc1)Cc1ccccc1
B10: H-DMT-(D)Glu-G-bhF-Sar-NH2 (peptide)
peptide: H-[Dmt][dE]G[β3hF][Sar]-NH2
SMILES: Cc1cc(O)cc(C)c1C[C@H](N)C(=O)N[C@H](CCC(=O)O)C(=O)NCC(=O)N[C@H](CC(=O)N(C)CC(N)=O)Cc1ccccc1
B11: H-DMT-(D)Glu-G-bhF-N(Me)-Ala-OH (peptide)
peptide: H-[Dmt][dE]G[β3hF][NMeA]-OH
SMILES: Cc1cc(O)cc(C)c1C[C@H](N)C(=O)N[C@H](CCC(=O)O)C(=O)NCC(=O)N[C@H](CC(=O)N(C)[C@@H](C)C(=O)O)Cc1ccccc1
B12: [DMT-((D)Ala)-Gly-(β-homoPhe)-(Sar)-(D-Lys)]2-DIG (peptide)
peptide: H-[Dmt][dA]G[β3hF][Sar][dK]
modifications: not fully specified (C-terminus); printed as [DMT-((D)Ala)-Gly-(β-homoPhe)-(Sar)-(D-Lys)]2-DIG; also: homodimer: the two D-Lys joined through DIG linker (Dimer C)

These binders were tested against T1, µ-opioid receptor (MOR), Human-ORPM1 (human, UniProt P35372 1-400) (assay: cell-based or functional assay).
T1 sequence (P35372 whole entry): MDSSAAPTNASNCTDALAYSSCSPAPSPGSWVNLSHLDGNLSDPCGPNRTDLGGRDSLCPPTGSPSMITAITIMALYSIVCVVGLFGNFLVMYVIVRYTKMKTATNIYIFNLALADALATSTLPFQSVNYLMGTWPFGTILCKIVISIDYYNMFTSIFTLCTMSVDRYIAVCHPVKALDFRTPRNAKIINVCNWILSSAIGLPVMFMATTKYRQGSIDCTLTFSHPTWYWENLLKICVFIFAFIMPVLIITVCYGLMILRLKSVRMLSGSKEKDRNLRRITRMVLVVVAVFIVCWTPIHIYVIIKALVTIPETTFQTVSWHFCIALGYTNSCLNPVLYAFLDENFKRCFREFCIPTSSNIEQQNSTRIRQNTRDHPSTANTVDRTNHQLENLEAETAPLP
B1 was tested, and the “MOR EC50” value was no more than 1 nM.

The binders below were run against T2, δ-opioid receptor (DOR), Human-ORPD1 (human, UniProt P41143 1-372) (assay: cell-based or functional assay).
T2 sequence (P41143 whole entry, stated change not applied): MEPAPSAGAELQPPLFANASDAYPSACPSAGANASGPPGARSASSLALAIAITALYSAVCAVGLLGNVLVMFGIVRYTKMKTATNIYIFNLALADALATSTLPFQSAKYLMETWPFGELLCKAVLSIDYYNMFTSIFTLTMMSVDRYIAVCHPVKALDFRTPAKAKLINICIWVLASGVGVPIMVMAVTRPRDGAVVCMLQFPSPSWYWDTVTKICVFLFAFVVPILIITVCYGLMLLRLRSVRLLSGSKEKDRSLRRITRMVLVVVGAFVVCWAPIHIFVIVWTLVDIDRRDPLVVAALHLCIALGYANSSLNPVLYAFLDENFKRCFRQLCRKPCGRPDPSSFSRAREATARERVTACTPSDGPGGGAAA
For B1, the “DOR EC50” value was no more than 1 nM.

Molecular target: T1, µ-opioid receptor (MOR), Human-ORPM1
Assay: cell-based or functional assay
Remark: another data set of the same source
In the case of B2, the “MOR EC50” value is reported as no more than 1 nM. With B3 the “MOR EC50” value was no more than 1 nM. With B4 the “MOR EC50” value was no more than 1 nM. For B5, the “MOR EC50” value was no more than 10 nM. B6 was tested, and the “MOR EC50” value was no more than 1 nM. In the case of H-[Dmt][dD]G[β3hF][NMeNle]-OH [H-DMT-(D)Asp-G-bhF-N(Me)-Nle-OH], the “MOR EC50” value is reported as no more than 1 nM. For B7, the “MOR EC50” value was no more than 1 nM. With B8 the “MOR EC50” value was no more than 1 nM. B9 was tested, and the “MOR EC50” value was no more than 1 nM. For B10, the “MOR EC50” value was no more than 1 nM. With B11 the “MOR EC50” value was no more than 10 nM.

Molecular target: T2, δ-opioid receptor (DOR), Human-ORPD1
Assay: cell-based or functional assay
Remark: another data set of the same source
B2 was tested, and the “DOR EC50” value was no more than 1 nM. B3 was tested, and the “DOR EC50” value was no more than 1 nM. With B4 the “DOR EC50” value was no more than 1 nM. For B5, the “DOR EC50” value was no more than 1 nM. In the case of B6, the “DOR EC50” value is reported as no more than 1 nM. In the case of H-[Dmt][dD]G[β3hF][NMeNle]-OH [H-DMT-(D)Asp-G-bhF-N(Me)-Nle-OH], the “DOR EC50” value is reported as no more than 1 nM. B7 was tested, and the “DOR EC50” value was no more than 1 nM. In the case of B8, the “DOR EC50” value is reported as no more than 1 nM. For B9, the “DOR EC50” value was no more than 1 nM. B10 was tested, and the “DOR EC50” value was no more than 10 nM. In the case of B11, the “DOR EC50” value is reported as no more than 1 nM.

Molecular target: T1, µ-opioid receptor (MOR), Human-ORPM1
Assay: cell-based or functional assay
Remark: another data set of the same source
With H-[Dmt][dA]G[β3hF][Sar]K (also: homodimer: two monomers joined at X5 through a lysine linker (Dimer A)) [[DMT-((D)Ala)-Gly-(β-homoPhe)-(Sar)]2-Lys] the “MOR EC50” value was no more than 1 nM. With H-[Dmt][dA]G[β3hF][NMeA]K (also: homodimer: two monomers joined at X5 through a lysine linker (Dimer A)) [[DMT-((D)Ala)-Gly-(β-homoPhe)-(NMe-Ala)]2-Lys] the “MOR EC50” value was no more than 1 nM. With B12 the “MOR EC50” value was no more than 10 nM. For H-[Dmt][dA]G[β3hF][NMeI]K (also: homodimer: two monomers joined at X5 through a lysine linker (Dimer A)) [[DMT-((D)Ala)-Gly-(β-homoPhe)-(NMe-Ile)]2-Lys], the “MOR EC50” value was no more than 10 nM. For H-[Dmt][dA]G[β3hF][Sar][dK] (also: homodimer: two monomers joined at X5 through a D-lysine linker (Dimer A)) [[DMT-((D)Ala)-Gly-(β-homoPhe)-(Sar)]2-(D-Lys)], the “MOR EC50” value was no more than 10 nM.

Molecular target: T2, δ-opioid receptor (DOR), Human-ORPD1
Assay: cell-based or functional assay
Remark: another data set of the same source
In the case of H-[Dmt][dA]G[β3hF][Sar]K (also: homodimer: two monomers joined at X5 through a lysine linker (Dimer A)) [[DMT-((D)Ala)-Gly-(β-homoPhe)-(Sar)]2-Lys], the “DOR EC50” value is reported as no more than 1 nM. With H-[Dmt][dA]G[β3hF][NMeA]K (also: homodimer: two monomers joined at X5 through a lysine linker (Dimer A)) [[DMT-((D)Ala)-Gly-(β-homoPhe)-(NMe-Ala)]2-Lys] the “DOR EC50” value was no more than 1 nM. In the case of B12, the “DOR EC50” value is reported as no more than 10 nM. For H-[Dmt][dA]G[β3hF][NMeI]K (also: homodimer: two monomers joined at X5 through a lysine linker (Dimer A)) [[DMT-((D)Ala)-Gly-(β-homoPhe)-(NMe-Ile)]2-Lys], the “DOR EC50” value was no more than 10 nM. In the case of H-[Dmt][dA]G[β3hF][Sar][dK] (also: homodimer: two monomers joined at X5 through a D-lysine linker (Dimer A)) [[DMT-((D)Ala)-Gly-(β-homoPhe)-(Sar)]2-(D-Lys)], the “DOR EC50” value is reported as no more than 10 nM.

Molecular target: T1, µ-opioid receptor (MOR), Human-ORPM1
Assay: cell-based or functional assay
Remark: another data set of the same source
In the case of B1, the “MOR cAMP (EC50 nM)” value is reported as no more than 1 nM.

Molecular target: T2, δ-opioid receptor (DOR), Human-ORPD1
Assay: cell-based or functional assay
Remark: another data set of the same source
For B1, the “DOR cAMP (EC50 nM)” value was no more than 1 nM.
